Positions count from the first letter of the chain named. Where two headings read alike, the source gives them in different places.
Experiments:
[1] = molecular target: T1, EphA4 ligand-binding domain (human, amino acids 22-203) (human, UniProt P54764, biotin on primary amines (EZ link NHS biotin) in the AlphaScreen assays only)
[2] = molecular target: T1, EphA4 ligand-binding domain (human, …); experiment: cell-based or functional assay
[3] = molecular target: T2, human EphA7 (recombinant, EphA7/ephrin-A5 competition assay) (Homo sapiens, UniProt Q15375); experiment: AlphaScreen or HTRF; competition: human EphA7 (3 nM) preincubated 1 h with increasing Nb, then biotinylated His-tagged human ephrin-A5 (30 nM); anti-IgG acceptor and streptavidin donor beads; 50 mM Hepes, 100 mM NaCl, 0.1% Triton, 0.1% BSA; conditions: both partners purified
T2 construct: EphA7, human; Probably an Fc chimera of the extracellular domain, since anti-IgG acceptor beads were used

[4] = molecular target: T3, mouse EphA4-Fc (R&D Systems) (mouse, UniProt Q03137); experiment: co-IP; Nb on anti-HA magnetic Dynabeads used to capture recombinant EphA4; EphA4 detected with N-terminal anti-EphA4 antibody; conditions: both partners purified
T3 construct: EphA4, mouse; the results call it 'full-length recombinant' receptor, the methods an EphA4-hFc fusion protein from R&D Systems; also called mEphA4-Fc; EphA4-hFc (mouse); source: bought: R&D Systems

[5] = molecular target: T4, human EphA4-Fc (R&D Systems) (Homo sapiens, UniProt P54764); experiment: co-IP; 2.5 μg recombinant mouse or human EphA4 protein (or recombinant ephrin-B2 as negative control) on protein G magnetic Dynabeads, 1 μg Nb overnight at 4 °C, PBS washes; Nb detected with anti-HA; conditions: both partners purified
T4 construct: EphA4, human; the results call it 'full-length recombinant' receptor, the methods an EphA4-hFc fusion protein from R&D Systems; also called hEphA4-Fc; EphA4-hFc; source: bought: R&D Systems

[6] = molecular target: T1, EphA4 ligand-binding domain (human, …); experiment: SPR; Biacore T200; EphA4 LBD amine-coupled to CM5 chip (300 RU); Nbs (1-300 nM) as analyte, 60 μl/min; 10 mM Hepes, 150 mM NaCl, 3 mM EDTA, 0.01 mM Surfactant P-20, pH 7.35; two-state model; conditions: both partners purified
[7] = molecular target: T3, mouse EphA4-Fc (R&D Systems); experiment: co-IP; 2.5 μg recombinant mouse or human EphA4 protein (or recombinant ephrin-B2 as negative control) on protein G magnetic Dynabeads, 1 μg Nb overnight at 4 °C, PBS washes; Nb detected with anti-HA; conditions: both partners purified
[8] = molecular target: T4, human EphA4-Fc (R&D Systems); experiment: co-IP; Nb on anti-HA magnetic Dynabeads used to capture recombinant EphA4; EphA4 detected with N-terminal anti-EphA4 antibody; conditions: both partners purified
[9] = molecular target: T5, mouse recombinant EphA7 (Fc-tagged; R&D Systems) (mouse, UniProt Q61772); experiment: AlphaScreen or HTRF; biotinylated Nbs (100 nM) with subhooking concentrations (10-100 nM) of mouse Fc-tagged Eph receptors; anti-IgG AlphaLISA acceptor and streptavidin donor beads; 50 mM Hepes, 100 mM NaCl, 0.1% Triton, 0.1% BSA; room temperature; conditions: both partners purified
T5 construct: EphA7, mouse, recombinant, Fc-tagged; source: bought: R&D Systems

[10] = molecular target: T6, mouse recombinant EphA3 (Fc-tagged; R&D Systems) (mouse, UniProt P29319); experiment: as above; conditions: both partners purified
T6 construct: EphA3, mouse, recombinant, Fc-tagged; source: bought: R&D Systems

[11] = molecular target: T7, mouse recombinant EphA6 (Fc-tagged; R&D Systems) (mouse, UniProt Q62413); experiment: as above; conditions: both partners purified
T7 construct: EphA6, mouse, recombinant, Fc-tagged; source: bought: R&D Systems

[12] = molecular target: T8, mouse recombinant EphA8 (Fc-tagged; R&D Systems) (mouse, UniProt O09127); experiment: as above; conditions: both partners purified
T8 construct: EphA8, mouse, recombinant, Fc-tagged; source: bought: R&D Systems

[13] = molecular target: T3, mouse EphA4-Fc (R&D Systems); experiment: SPR; Biacore T200; EphA4-hFc (human or mouse) captured (~500 RU) on anti-human Fc antibody; Nbs as analyte; 10 mM Hepes, 150 mM NaCl, 3 mM EDTA, 0.01 mM Surfactant P-20, pH 7.35; 1:1 or two-state model; conditions: both partners purified
[14] = molecular target: T4, human EphA4-Fc (R&D Systems); experiment: as above; conditions: both partners purified
[15] = molecular target: T9, ephrin-B2 (Fc-tagged; R&D Systems) (UniProt P52799); experiment: co-IP; 2.5 μg recombinant mouse or human EphA4 protein (or recombinant ephrin-B2 as negative control) on protein G magnetic Dynabeads, 1 μg Nb overnight at 4 °C, PBS washes; Nb detected with anti-HA; conditions: both partners purified
T9 construct: ephrin-B2, recombinant, Fc-tagged (R&D Systems); also called recombinant ephrin-B2; ephrin-B2 ligand; source: bought: R&D Systems
T9 sequence (P52799 28-229): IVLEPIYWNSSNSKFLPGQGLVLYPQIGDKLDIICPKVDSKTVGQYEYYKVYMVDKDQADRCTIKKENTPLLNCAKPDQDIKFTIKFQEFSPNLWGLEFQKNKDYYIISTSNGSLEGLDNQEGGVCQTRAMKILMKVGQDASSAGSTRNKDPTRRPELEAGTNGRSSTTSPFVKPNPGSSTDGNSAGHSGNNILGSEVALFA

T3 sequence (Q03137 20-547): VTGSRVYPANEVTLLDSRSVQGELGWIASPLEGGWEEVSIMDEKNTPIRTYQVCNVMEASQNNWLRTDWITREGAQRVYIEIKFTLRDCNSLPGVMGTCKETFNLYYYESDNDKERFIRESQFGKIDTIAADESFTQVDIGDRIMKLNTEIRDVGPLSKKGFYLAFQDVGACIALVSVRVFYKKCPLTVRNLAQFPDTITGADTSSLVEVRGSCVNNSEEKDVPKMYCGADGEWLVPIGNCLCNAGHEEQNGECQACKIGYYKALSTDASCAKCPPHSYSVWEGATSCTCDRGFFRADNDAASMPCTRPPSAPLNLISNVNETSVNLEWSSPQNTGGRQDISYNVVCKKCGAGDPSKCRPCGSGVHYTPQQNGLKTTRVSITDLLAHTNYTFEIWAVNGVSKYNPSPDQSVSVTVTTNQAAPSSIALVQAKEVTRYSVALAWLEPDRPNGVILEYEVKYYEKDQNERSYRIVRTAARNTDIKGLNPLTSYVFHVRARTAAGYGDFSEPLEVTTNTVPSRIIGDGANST
T1 sequence (P54764 22-203): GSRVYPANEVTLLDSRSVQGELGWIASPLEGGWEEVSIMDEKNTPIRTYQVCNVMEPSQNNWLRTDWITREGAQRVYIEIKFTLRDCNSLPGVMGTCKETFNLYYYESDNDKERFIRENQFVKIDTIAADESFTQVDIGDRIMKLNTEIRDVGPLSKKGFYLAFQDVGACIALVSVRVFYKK
T4 sequence (P54764 20-547): as the sequence (Q03137 20-547) above, with A59P, S121N, G124V, Q250R, N251S, S270T, R378K, S406N counted along it
T2 sequence (Q15375 28-998): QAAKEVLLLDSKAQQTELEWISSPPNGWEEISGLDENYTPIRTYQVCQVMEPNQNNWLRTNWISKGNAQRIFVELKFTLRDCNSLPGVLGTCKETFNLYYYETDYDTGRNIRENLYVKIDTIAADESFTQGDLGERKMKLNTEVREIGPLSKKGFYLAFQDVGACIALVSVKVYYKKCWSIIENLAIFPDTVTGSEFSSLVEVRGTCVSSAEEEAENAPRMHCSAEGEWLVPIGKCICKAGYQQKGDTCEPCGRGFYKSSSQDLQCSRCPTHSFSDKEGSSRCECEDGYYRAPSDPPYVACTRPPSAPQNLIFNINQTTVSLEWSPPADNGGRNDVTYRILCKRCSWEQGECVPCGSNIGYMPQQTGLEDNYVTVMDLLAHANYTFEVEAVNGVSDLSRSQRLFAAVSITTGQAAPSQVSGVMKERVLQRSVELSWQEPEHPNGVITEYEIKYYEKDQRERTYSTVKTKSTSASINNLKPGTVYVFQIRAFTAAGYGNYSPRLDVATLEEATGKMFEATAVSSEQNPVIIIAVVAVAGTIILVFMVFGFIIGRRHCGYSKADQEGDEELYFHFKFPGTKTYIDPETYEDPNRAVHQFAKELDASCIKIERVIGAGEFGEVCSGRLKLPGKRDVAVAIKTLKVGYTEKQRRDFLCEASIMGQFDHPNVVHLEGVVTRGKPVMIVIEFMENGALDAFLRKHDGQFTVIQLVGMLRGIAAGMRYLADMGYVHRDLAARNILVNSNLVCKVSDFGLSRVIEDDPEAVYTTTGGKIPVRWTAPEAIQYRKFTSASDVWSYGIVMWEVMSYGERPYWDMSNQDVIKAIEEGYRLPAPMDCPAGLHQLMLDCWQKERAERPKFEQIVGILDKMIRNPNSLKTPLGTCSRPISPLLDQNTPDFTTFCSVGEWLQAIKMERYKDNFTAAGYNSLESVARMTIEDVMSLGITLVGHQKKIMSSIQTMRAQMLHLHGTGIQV
T5 sequence (Q61772 28-555): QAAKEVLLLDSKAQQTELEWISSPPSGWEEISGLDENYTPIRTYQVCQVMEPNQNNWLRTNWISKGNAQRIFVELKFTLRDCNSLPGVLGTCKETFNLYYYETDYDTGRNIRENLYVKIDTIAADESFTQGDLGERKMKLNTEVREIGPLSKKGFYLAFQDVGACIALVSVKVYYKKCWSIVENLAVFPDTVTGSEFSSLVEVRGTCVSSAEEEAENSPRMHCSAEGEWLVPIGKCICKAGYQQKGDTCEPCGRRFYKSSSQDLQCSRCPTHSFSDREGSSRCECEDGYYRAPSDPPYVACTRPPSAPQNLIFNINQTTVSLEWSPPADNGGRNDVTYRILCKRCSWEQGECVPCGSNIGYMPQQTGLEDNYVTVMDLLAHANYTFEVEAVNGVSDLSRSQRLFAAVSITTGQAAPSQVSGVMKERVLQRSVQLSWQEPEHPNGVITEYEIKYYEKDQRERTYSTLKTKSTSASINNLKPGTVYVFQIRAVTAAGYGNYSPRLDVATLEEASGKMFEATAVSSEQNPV
T6 sequence (P29319 21-540): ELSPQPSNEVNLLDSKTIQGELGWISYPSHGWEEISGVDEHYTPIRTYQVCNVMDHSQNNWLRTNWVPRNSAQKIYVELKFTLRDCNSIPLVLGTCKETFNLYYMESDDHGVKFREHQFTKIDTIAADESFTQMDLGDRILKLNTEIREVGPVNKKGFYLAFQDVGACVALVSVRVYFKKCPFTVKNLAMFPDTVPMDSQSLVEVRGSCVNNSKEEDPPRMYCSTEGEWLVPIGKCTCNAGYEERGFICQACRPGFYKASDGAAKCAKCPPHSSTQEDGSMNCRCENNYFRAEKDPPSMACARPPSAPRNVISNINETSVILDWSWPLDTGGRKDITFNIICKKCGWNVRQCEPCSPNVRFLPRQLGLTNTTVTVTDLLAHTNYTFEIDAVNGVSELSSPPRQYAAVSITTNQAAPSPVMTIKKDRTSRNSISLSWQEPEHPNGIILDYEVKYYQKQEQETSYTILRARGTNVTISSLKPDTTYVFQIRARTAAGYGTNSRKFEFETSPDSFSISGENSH
T8 sequence (O09127 27-541): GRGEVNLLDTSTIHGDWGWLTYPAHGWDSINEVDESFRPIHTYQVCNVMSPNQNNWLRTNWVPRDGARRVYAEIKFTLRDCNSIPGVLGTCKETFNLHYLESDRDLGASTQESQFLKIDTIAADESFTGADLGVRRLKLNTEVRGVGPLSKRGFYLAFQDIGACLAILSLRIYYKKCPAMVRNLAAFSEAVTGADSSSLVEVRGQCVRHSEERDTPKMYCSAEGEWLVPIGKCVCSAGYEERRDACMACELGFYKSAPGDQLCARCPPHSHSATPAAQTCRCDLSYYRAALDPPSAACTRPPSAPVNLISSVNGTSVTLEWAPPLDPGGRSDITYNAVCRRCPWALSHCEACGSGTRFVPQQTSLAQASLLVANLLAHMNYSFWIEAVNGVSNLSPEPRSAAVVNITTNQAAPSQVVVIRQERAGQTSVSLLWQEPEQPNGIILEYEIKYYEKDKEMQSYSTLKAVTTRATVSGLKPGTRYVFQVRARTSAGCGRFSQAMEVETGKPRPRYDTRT
T7 sequence (Q62413 23-549): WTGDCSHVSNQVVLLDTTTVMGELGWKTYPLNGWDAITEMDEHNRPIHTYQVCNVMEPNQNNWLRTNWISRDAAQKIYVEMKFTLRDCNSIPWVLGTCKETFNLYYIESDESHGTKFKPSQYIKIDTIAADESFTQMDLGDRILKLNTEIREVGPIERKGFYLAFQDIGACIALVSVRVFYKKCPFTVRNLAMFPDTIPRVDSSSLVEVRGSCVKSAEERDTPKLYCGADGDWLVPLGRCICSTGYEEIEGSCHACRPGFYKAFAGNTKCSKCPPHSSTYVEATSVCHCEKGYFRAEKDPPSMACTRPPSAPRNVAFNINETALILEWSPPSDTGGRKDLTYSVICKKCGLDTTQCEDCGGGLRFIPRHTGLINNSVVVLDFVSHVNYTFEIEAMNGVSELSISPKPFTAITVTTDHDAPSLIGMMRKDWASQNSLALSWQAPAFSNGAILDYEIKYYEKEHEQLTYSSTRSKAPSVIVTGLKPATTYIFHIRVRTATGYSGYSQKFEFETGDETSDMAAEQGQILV

B1: Nb 90 (VHH)
VHH: QVQLQESGGGLVQPGGSLRLSCAASGFTFSSHWIYWVRQAPGKQRELVAAITSGGSTNYADSVKGRFTISRDNAKNTVFLQMNSLKPEDTAVYYCNAWGFLLGDIEDYWGQGTQVTVSS
binding result [1]: binds

B2: Nb 16 (VHH)
VHH: QVQLQESGGGLVQPGGSLRLSCAASGFTFSNYAMSWVRQAPGKGLEWVSGINKGGGSAYYSDSVKGRFTISRDNAENTLYLQMNNLKPEDTAVYYCVIPWGLGSNEYDYWGQGTQVTVSS
binding result [1]: binds

B3: Nb 71 (VHH)
VHH: QVQLQESGGGLVQPGGSLRLSCAASGFTFSSYWMYWVRQTPGKGLEWVSGINSPGSITGYADSVKGRFTISRDNAKNTLYLQMNSLKSDDTAVYYCARDLTYGGNSLRYIERGQGTQVTVSS
binding result [1]: binds

B4: Nb 28 (VHH)
VHH: QVQLQESGGGLVQAGGSLRLSCAASGFTFSSNWMYWVRQAPGKGLEWVSGINSGGSSTYYSDSVKGRFTISRDNAKNTLYLQMNSLKPEDTAVYYCAKYSGSYYYRRGPGTQVTVSS
binding result [1]: binds

B5: Nb 10 (VHH)
VHH: QVQLQESGGGLVQAGGSLRLSCAASGRTFSSYAMGWFRQAPGTKREMIAAVTKAGTTSYANPVKGRFTISRDDAKNMVYLQMNNLKPEDSAVYYCNAISPLWDEYDFWGPGTQVTVSS
binding result [1]: binds

B6: Nb 39 (VHH)
VHH: QVQLQESGGGLVQPGGSLKLSCAASGFTFSTYAMSWVRQAPGKGLEWVSRINSGGGYTWHADSVKGRFTISRDNARNTVYLQMNNLKPEDTAVYYCTNLNTGWRPEYWGQGTQVTVSS
notes: Cloned in the phagemid pMECS; also called Nanobody 39; source: E. coli WK6, periplasmic extract, purified (His GraviTrap, Sephadex G25)
IC50 of inhibition of ephrin-A1-induced EphA4 phosphorylation (PathHunter assay, EphA4-expressing U2OS cells); blocks ephrin-A1 with EphA4 [2]: 0.17 µM
binding result [3]: binds
binding result [4]: binds

B7: Nb 53 (VHH)
VHH: B5 VHH with L11V, T28A, K53R, S58N
notes: Cloned in the phagemid pMECS; Same clonal group as Nb 31, 50 and 10; also called Nanobody 53; source: E. coli WK6, periplasmic extract, purified (His GraviTrap, Sephadex G25)
IC50 of inhibition of ephrin-A1-induced EphA4 phosphorylation (PathHunter assay, EphA4-expressing U2OS cells); blocks ephrin-A1 with EphA4 [2]: 0.261 µM
binding result [3]: binds
binding result [4]: binds

B8: Nb 31 (VHH)
VHH: B5 VHH with R27F, T28A, F29S, S30D, S31A, M34I, T56A, S58N
notes: Cloned in the phagemid pMECS; Same clonal group as Nb 50, 10 and 53; also called Nanobody 31; source: E. coli WK6, periplasmic extract, purified (His GraviTrap, Sephadex G25)
binding result [5]: binds
binding result [4]: binds
binding result [6]: binds

B9: Nb 57 (VHH)
VHH: QVQLQESGGGLVQPGGSLRLSCAASGFTFSSYYMYWVRQAPGKGLEWVSTINTGGGSTNYADSVKGRFIISRDNAKNTVYLQMNSLKPEDTAVYYCNAFAAGWGPDYWGQGTQVTVSS
notes: Cloned in the phagemid pMECS; Same clonal group as Nb 19; also called Nanobody 57; source: E. coli WK6, periplasmic extract, purified (His GraviTrap, Sephadex G25)
binding result [7]: binds
binding result [8]: binds
binding result [9]: binds
binding result [10]: binds
binding result [6]: binds

B10: Nb 50 (VHH)
VHH: B5 VHH with S30N, M34E, G35A, T43K, K44E, S58N
notes: Cloned in the phagemid pMECS; Same clonal group as Nb 31, 10 and 53; also called Nanobody 50; source: E. coli WK6, periplasmic extract, purified (His GraviTrap, Sephadex G25)
binding result [4]: binds
binding result [8]: binds
binding result [9]: binds
binding result [10]: binds
binding result [11]: binds
binding result [12]: binds
binding result [6]: binds

B11: Nb 22 (VHH)
VHH: QVQLQESGGGPVRAGESLRLSCTASGRAFSTYTMGWFRQAPGKERELVAVITPGGNTNYADSVKGRFTISRDDAKNTVYLQMNSLKPVDTAVYYCHVVLAVVGTGNEYDVWGQGTQVTVSS
notes: Cloned in the phagemid pMECS; also called Nanobody 22; source: E. coli WK6, periplasmic extract, purified (His GraviTrap, Sephadex G25)
fold difference in binding affinity between human and mouse EphA4 [13]: 2 fold
binding result [5]: binds
binding result [6]: binds

B12: Nb 60 (VHH)
VHH: B1 VHH with S31R, H32Y, S53R, G54N, S56V, R71T, N73D, A74N, F79Y, P87S
notes: Cloned in the phagemid pMECS; Same clonal group as Nb 90; also called Nanobody 60; source: E. coli WK6, periplasmic extract, purified (His GraviTrap, Sephadex G25)
binding result [13]: binds
binding result [14]: binds
binding result [15]: binds
binding result [6]: binds

B13: Nb 19 (VHH)
VHH: QVQLQESGGGLVQPGGSLRLSCAATGRNFNAYSIAWFRQAPGKEREFVASINWSGSNTYYAVAVKGRFTTSRDNAKNTVYLQMNSLKPEDTAVYYCNAFAAGWGPDYWGQGTQVTVSS
notes: Cloned in the phagemid pMECS; Same clonal group as Nb 57; also called Nanobody 19; source: E. coli WK6, periplasmic extract, purified (His GraviTrap, Sephadex G25)
binding result [6]: binds

B14: Nb 34 (VHH)
VHH: QVQLQESGGGLVQAGGSLRLSCAASGFTFSSYAMSWVRQAPGKGLEWVSGINTGGGSTYYADSVKGRFTISRDNAKNTLYLQMNSLKSEDTAVYYCVPRVGVLEGLTSFGSWGQGTQVTVSS
notes: Cloned in the phagemid pMECS; Same clonal group as Nb 47; also called Nanobody 34; source: E. coli WK6, periplasmic extract, purified (His GraviTrap, Sephadex G25)
binding result [6]: no binding (tested: 1–300 nM)

B15: Nb 47 (VHH)
VHH: B14 VHH with A14P
notes: Cloned in the phagemid pMECS; Same clonal group as Nb 34; also called Nanobody 47; source: E. coli WK6, periplasmic extract, purified (His GraviTrap, Sephadex G25)
binding result [6]: no binding (tested: 1–300 nM)
